Results on 41 molecules are retold here after paper PMC11417369, “DNA sequence and chromatin differentiate sequence-specific transcription factor binding in the human malaria parasite Plasmodium falciparum”.

The labels stand for the following.
B1: GTGCAC_site9405 (dsDNA)
DNA 1: TAAAAATAGGAGTGTGTGCACATAAATTATATACTA
DNA 2: TAGTATATAATTTATGTGCACACACTCCTATTTTTA
B2: GTGCAC_site9801 (dsDNA)
DNA 1: ATCATCTTTATTCAAGTGCACTGAAAATTTTTTATA
DNA 2: TATAAAAAATTTTCAGTGCACTTGAATAAAGATGAT
B3: GTGCAC_site9896 (dsDNA)
DNA 1: TCTTACGGATTCATTGTGCACATATATATATATATA
DNA 2: TATATATATATATATGTGCACAATGAATCCGTAAGA
B4: GTGCAC_site9761 (dsDNA)
DNA 1: ACATAATATACTATTGTGCACATATATATATATATA
DNA 2: TATATATATATATATGTGCACAATAGTATATTATGT
B5: GTGCAC_site10701 (dsDNA)
DNA 1: TAATACATAAATAATGTGCACATGGAAATATATCTT
DNA 2: AAGATATATTTCCATGTGCACATTATTTATGTATTA
B6: GTGCAC_site10725 (dsDNA)
DNA 1: TTTTGTTATTTTGAAGTGCACTTTCCACTTAATATA
DNA 2: TATATTAAGTGGAAAGTGCACTTCAAAATAACAAAA
B7: GTGCAC_site10342 (dsDNA)
DNA 1: TTTTTAAACCATGTTGTGCACATTTTTTTTGGATTT
DNA 2: AAATCCAAAAAAAATGTGCACAACATGGTTTAAAAA
B8: GTGCAC_site10060 (dsDNA)
DNA 1: TCTTTTTCTTCTTATGTGCACATCAATTATGCTTCT
DNA 2: AGAAGCATAATTGATGTGCACATAAGAAGAAAAAGA
B9: GTGCAC_site10194 (dsDNA)
DNA 1: AATTTTCCATAGATTGTGCACAAATTTTTATTTTGT
DNA 2: ACAAAATAAAAATTTGTGCACAATCTATGGAAAATT
B10: GTGCAC_site9859 (dsDNA)
DNA 1: TACATAAATATATGTGTGCACAATTTCGTATATTTA
DNA 2: TAAATATACGAAATTGTGCACACATATATTTATGTA
B11: GTGCAC_site9611 (dsDNA)
DNA 1: TATGAAACGATATATGTGCACATGAGGGAATATAGA
DNA 2: TCTATATTCCCTCATGTGCACATATATCGTTTCATA
B12: GTGCAC_site10210 (dsDNA)
DNA 1: ATTGAATATGGATATGTGCACATATGTATATAAGTA
DNA 2: TACTTATATACATATGTGCACATATCCATATTCAAT
B13: GTGCAC_site10136 (dsDNA)
DNA 1: ATGATCTGTTTGTTTGTGCACATATATATATATTAA
DNA 2: TTAATATATATATATGTGCACAAACAAACAGATCAT
B14: GTGCAC_site10407 (dsDNA)
DNA 1: CCTTTTTATCTTTTTGTGCACAGACCTTTTTTAAAT
DNA 2: ATTTAAAAAAGGTCTGTGCACAAAAAGATAAAAAGG
B15: GTGCAC_site9581 (dsDNA)
DNA 1: TTATTACACACATATGTGCACATATAAAAGTACACG
DNA 2: CGTGTACTTTTATATGTGCACATATGTGTGTAATAA
B16: GTGCAC_site9742 (dsDNA)
DNA 1: GAAAAATTTTTATATGTGCACATGTTATATATAATT
DNA 2: AATTATATATAACATGTGCACATATAAAAATTTTTC
B17: GTGCAC_site10672 (dsDNA)
DNA 1: AATTTCAAATTGTATGTGCACATGTAGAAGTACTTT
DNA 2: AAAGTACTTCTACATGTGCACATACAATTTGAAATT
B18: GTGCAC_site10009 (dsDNA)
DNA 1: AAATATAGAATACATGTGCACATAATATATATATAT
DNA 2: ATATATATATATTATGTGCACATGTATTCTATATTT
B19: GTGCAC_site10106 (dsDNA)
DNA 1: ATATTTTATATATTTGTGCACAATATTATAATATAT
DNA 2: ATATATTATAATATTGTGCACAAATATATAAAATAT
B20: GTGCAC_site10617 (dsDNA)
DNA 1: GAGGTCTTTTTTAATGTGCACATATATATATATATA
DNA 2: TATATATATATATATGTGCACATTAAAAAAGACCTC
B21: GTGCAC_site10602 (dsDNA)
DNA 1: GTTGTATACAATAATGTGCACATATTAATTTGAACT
DNA 2: AGTTCAAATTAATATGTGCACATTATTGTATACAAC
B22: GTGCAC_site10133 (dsDNA)
DNA 1: AATTTATATAATTTTGTGCACAATATTCATGTATAT
DNA 2: ATATACATGAATATTGTGCACAAAATTATATAAATT
B23: GTGCAC_site10422 (dsDNA)
DNA 1: ATCAATAAATAAAATGTGCACATAATATATTAATAC
DNA 2: GTATTAATATATTATGTGCACATTTTATTTATTGAT
B24: GTGCAC_site10665 (dsDNA)
DNA 1: TATGTATATTTTTTTGTGCACATATATATATATATA
DNA 2: TATATATATATATATGTGCACAAAAAAATATACATA
B25: GTGCAC_site10138 (dsDNA)
DNA 1: TATTTATAAATATGTGTGCACAATTTATTTTATAAT
DNA 2: ATTATAAAATAAATTGTGCACACATATTTATAAATA
B26: GTGCAC_site10288 (dsDNA)
DNA 1: ATAGATCCTAATGTTGTGCACATGTAAATTAATATA
DNA 2: TATATTAATTTACATGTGCACAACATTAGGATCTAT
B27: GTGCAC_site9822 (dsDNA)
DNA 1: ATCGTGTTAAATGTTGTGCACATATAAATTACAAAA
DNA 2: TTTTGTAATTTATATGTGCACAACATTTAACACGAT
B28: GTGCAC_site9931 (dsDNA)
DNA 1: ATAAAAATAAAAAGTGTGCACACAAAAATATATATA
DNA 2: TATATATATTTTTGTGTGCACACTTTTTATTTTTAT
B29: GTGCAC_site10307 (dsDNA)
DNA 1: AAATAATTAGAAATAGTGCACATAATTAAGGGATAC
DNA 2: GTATCCCTTAATTATGTGCACTATTTCTAATTATTT
B30: GTGCAC_site9990 (dsDNA)
DNA 1: TATATATATGTATATGTGCACAGTTTTCTTATTAAA
DNA 2: TTTAATAAGAAAACTGTGCACATATACATATATATA
B31: GTGCAC_site9536 (dsDNA)
DNA 1: AATAATATACCTCTTGTGCACATATTAAAAGTTCAT
DNA 2: ATGAACTTTTAATATGTGCACAAGAGGTATATTATT
B32: GTGCAC_site9651 (dsDNA)
DNA 1: AATCGATAAAATGTTGTGCACATATTTTTATATTTA
DNA 2: TAAATATAAAAATATGTGCACAACATTTTATCGATT
B33: GTGCAC_site9637 (dsDNA)
DNA 1: GGAAAATATGTTTGTGTGCACAGCTAGCTATTTGTA
DNA 2: TACAAATAGCTAGCTGTGCACACAAACATATTTTCC
B34: GTGCAC_site10777 (dsDNA)
DNA 1: ATAATATATACGTGTGTGCACATGACAAAAGCATAT
DNA 2: ATATGCTTTTGTCATGTGCACACACGTATATATTAT
B35: GTGCAC_site9799 (dsDNA)
DNA 1: TATTATAATATATTTGTGCACATAATATCTCCGCTA
DNA 2: TAGCGGAGATATTATGTGCACAAATATATTATAATA
B36: GTGCAC_site10327 (dsDNA)
DNA 1: AAATTATGCATCGAGGTGCGTCTTAAAATATAGTGG
DNA 2: CCACTATATTTTAAGACGCACCTCGATGCATAATTT
B37: GTGCAC_site9621 (dsDNA)
DNA 1: TATATATATAAGATTGTGCACATTAAAATGATAGAA
DNA 2: TTCTATCATTTTAATGTGCACAATCTTATATATATA
B38: GTGCAC_site9584 (dsDNA)
DNA 1: TGTAATAATATTTATGTGCACATATATTAAACTATA
DNA 2: TATAGTTTAATATATGTGCACATAAATATTATTACA
B39: GTGCAC_site10596 (dsDNA)
DNA 1: AAAATTTATAGTATGGTGCATAAAAATATATATATA
DNA 2: TATATATATATTTTTATGCACCATACTATAAATTTT
B40: GTGCAC_site10419 (dsDNA)
DNA 1: TTTTCTTTTTTTTTTGTGCACATAATATATAATTAT
DNA 2: ATAATTATATATTATGTGCACAAAAAAAAAAGAAAA
B41: GTGCAC_site9497 (dsDNA)
DNA 1: TAATTGAGCAAATGAGTGCACAGCATAAAGTATAGT
DNA 2: ACTATACTTTATGCTGTGCACTCATTTGCTCAATTA

For this data set, the target named is T1, HDP1 homeodomain-like (Plasmodium falciparum, UniProt Q8IKH4 2990-3078).
T1 sequence: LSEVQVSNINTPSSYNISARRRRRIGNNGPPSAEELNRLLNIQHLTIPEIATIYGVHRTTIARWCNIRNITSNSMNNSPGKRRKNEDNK
As to the kind of experiment: gcPBM; about 25 ug protein; PBS, 1% milk, 0.2 mg/ml BSA, salmon testes DNA, 0.03% Triton X-100. The following applies: tags: N-terminal GST (pGEX-4T-1), kept; chain copies: 2; label: surface-attached array probe.
Take B1: the binding signal was 11.2 ln median PBM intensity, better of two orientations.

Turning to B2, the binding signal was 11.2 ln median PBM intensity, better of two orientations.

As for B3, the binding signal was 11.1 ln median PBM intensity, better of two orientations.

On to B4, for which the binding signal was 11.2 ln median PBM intensity, better of two orientations.

Consider B5, for which the binding signal is 11.2 ln median PBM intensity, better of two orientations.

Take B6: the binding signal was 10.7 ln median PBM intensity, better of two orientations.

As for B7, the binding signal was 11.3 ln median PBM intensity, better of two orientations.

B8: the binding signal is 10.8 ln median PBM intensity, better of two orientations.

B9: the binding signal was 11.3 ln median PBM intensity, better of two orientations.

As to B10, the binding signal is 11.1 ln median PBM intensity, better of two orientations.

Take B11: the binding signal is 11.3 ln median PBM intensity, better of two orientations.

B12: the binding signal is 11.1 ln median PBM intensity, better of two orientations.

Consider B13, for which the binding signal was 11.3 ln median PBM intensity, better of two orientations.

As for B14, the binding signal is 11.2 ln median PBM intensity, better of two orientations.

B15: the binding signal is 11.1 ln median PBM intensity, better of two orientations.

As to B16, the binding signal was 11.2 ln median PBM intensity, better of two orientations.

For B17, the binding signal was 11.1 ln median PBM intensity, better of two orientations.

On to B18, for which the binding signal is 11.3 ln median PBM intensity, better of two orientations.

B19: the binding signal is 10.8 ln median PBM intensity, better of two orientations.

As for B20, the binding signal was 11 ln median PBM intensity, better of two orientations.

As for B21, the binding signal is 11.2 ln median PBM intensity, better of two orientations.

In the case of B22, the binding signal is 11.2 ln median PBM intensity, better of two orientations.

As to B23, the binding signal is 11.1 ln median PBM intensity, better of two orientations.

With B24, the binding signal is 11.3 ln median PBM intensity, better of two orientations.

Regarding B25, the binding signal is 11 ln median PBM intensity, better of two orientations.

Take B26: the binding signal is 11 ln median PBM intensity, better of two orientations.

In the case of B27, the binding signal was 11.3 ln median PBM intensity, better of two orientations.

Regarding B28, the binding signal was 11.3 ln median PBM intensity, better of two orientations.

With B29, the binding signal was 10.9 ln median PBM intensity, better of two orientations.

For the molecule B30, the binding signal is 11.1 ln median PBM intensity, better of two orientations.

With B31, the binding signal was 11.3 ln median PBM intensity, better of two orientations.

Consider B32, for which the binding signal was 11.2 ln median PBM intensity, better of two orientations.

B33: the binding signal was 11 ln median PBM intensity, better of two orientations.

In the case of B34, the binding signal was 11.1 ln median PBM intensity, better of two orientations.

Take B35: the binding signal is 11.1 ln median PBM intensity, better of two orientations.

For B36, the binding signal is 11.2 ln median PBM intensity, better of two orientations.

Turning to B37, the binding signal is 11.1 ln median PBM intensity, better of two orientations.

Regarding B38, the binding signal was 11.1 ln median PBM intensity, better of two orientations.

On to B39, for which the binding signal is 10.6 ln median PBM intensity, better of two orientations.

As for B40, the binding signal was 11.2 ln median PBM intensity, better of two orientations.

Regarding B41, the binding signal is 10.7 ln median PBM intensity, better of two orientations.
